{
  "source": "paper PMC3737412",
  "about": "“Species-Specific and Cross-Reactive IgG1 Antibody Binding to Viral Capsid Protein 1 (VP1) Antigens of Human Rhinovirus Species A, B and C” (PLoS ONE, 2013)",
  "molecules": {"B1": {"name": "Recombinant GST-fusion HRV-A1B VP1 with a C-terminal histidine tag (natural protein)", "chain": "SGPIEQNPVENYIDEVLNEVLVVPNIKESHHTTSNSAPLLDAAETGHTSNVQPEDAIETRYVMTSQTRDEMSIESFLGRSGCVHISRIKVDYNDYNGVNKNFTTWKITLQEMAQIRRKFELFTYVRFDSEVTLVPCIAGRGDDIGHVVMQYMYVPPGAPIPKTRNDFSWQSGTNMSIFWQHGQPFPRFSLPFLSIASAYYMFYDGYDGDNSSSKYGSIVTNDMGTICSRIVTEKQEHPVVITTHIYHKAKHTKAWCPRPPRAVPYTHSRVTNYVPKTGDVTTAIVPRASMKTV"}, "B2": {"name": "Recombinant GST-fusion HRV-B14 VP1 with a C-terminal histidine tag (natural protein)", "chain": "TVALTEGLGDELEEVIVEKTKQTVASISSGPKHTQKVPILTANETGATMPVLPSDSIETRTTYMHFNGSETDVECFLGRAACVHVTEIQNKDATGIDNHREAKLFNDWKINLSSLVQLRKKLELFTYVRFDSEYTILATASQPDSANYSSNLVVQAMYVPPGAPNPKEWDDYTWQSASNPSVFFKVGDTSRFSVPYVGLASAYNCFYDGYSHDDAETQYGITVLNHMGSMAFRIVNEHDEHKTLVKIRVYHRAKHVEAWIPRAPRALPYTSIGRTNYPKNTEPVIKKRKGDIKSY"}},
  "experiment_in_all_cases": "SEC",
  "key": {"[1]": {"target": "Recombinant GST-fusion HRV-C3 VP1 with a C-terminal histidine tag (human rhinovirus C3 (HRV-C species))"}, "[2]": {"target": "Recombinant GST-fusion human poliovirus (HPV) Sabin VP1 with a C-terminal histidine tag (human poliovirus Sabin)"}, "[3]": {"target": "Recombinant GST-fusion HRV-A34 VP1 with a C-terminal histidine tag (human rhinovirus A34 (HRV-A species))"}, "[4]": {"target": "Recombinant GST-fusion HRV-B69 VP1 with a C-terminal histidine tag (human rhinovirus B69 (HRV-B species))"}, "[5]": {"target": "Recombinant GST-fusion HRV-C5 VP1 with a C-terminal histidine tag (human rhinovirus C5 (HRV-C species))"}, "SEC": {"target": "the molecule itself"}},
  "data": [
    {"molecule": "Recombinant GST-fusion HRV-C3 VP1 with a C-terminal histidine tag (natural protein)", "values": [
      {"measurement": "stoichiometry N", "setting": "[1]", "value": 10}
    ]},
    {"molecule": "Recombinant GST-fusion human poliovirus (HPV) Sabin VP1 with a C-terminal histidine tag (natural protein)", "values": [
      {"measurement": "stoichiometry N", "setting": "[2]", "value": 10}
    ]},
    {"molecule": "Recombinant GST-fusion HRV-A34 VP1 with a C-terminal histidine tag (natural protein)", "values": [
      {"measurement": "stoichiometry N", "setting": "[3]", "value": 10}
    ]},
    {"molecule": "Recombinant GST-fusion HRV-B69 VP1 with a C-terminal histidine tag (natural protein)", "values": [
      {"measurement": "stoichiometry N", "setting": "[4]", "value": 10}
    ]},
    {"molecule": "Recombinant GST-fusion HRV-C5 VP1 with a C-terminal histidine tag (natural protein)", "values": [
      {"measurement": "stoichiometry N", "setting": "[5]", "value": 10}
    ]},
    {"molecule": "B1", "values": [
      {"measurement": "stoichiometry N", "setting": "SEC", "value": "~10"}
    ]},
    {"molecule": "B2", "values": [
      {"measurement": "stoichiometry N", "setting": "SEC", "value": "~10"}
    ]}
  ]
}
